Test results reported in patent publication US20110301120A1, “USE OF A CHITOSAN POLYMER FOR HEPARIN NEUTRALIZATION” (UNIWERSYTET JAGIELLONSKI, priority 2009, published 2011).

Tests used:
[1] = Interaction of heparin with cationically-modified chitosan at pH 7.4 (Azure A method); format: binding
Method: The concentration of in solution was determined spectrophotometrically using Azure A. 0.9 ml of proper buffer was added to 0.1 ml of heparin solution, followed by addition of 1.0 ml of Azure A solution at 8.0·10^−5 M and the absorption spectrum of the obtained solution was measured. The concentration of heparin was determined on the basis of the intensity of absorption band at 630 nm, which corresponds to monomeric molecules of Azure A. The concentration of free heparin after addition of chitosan was determined by mixing at defined proportions of chitosan solutions in acetic acid. After 10 minutes of energetic shaking the mixtures obtained were centrifuged at 3000 rpm in order to separate the insoluble complex. The concentration of free heparin was determined in the supernatant.
The interaction of modified polymers with heparin in the aqueous solution at pH 7.4 was studied (FIG. 2). By measuring heparin concentration with Azure A method it was shown that cationically-modified chitosan effectively complexes free heparin in solution at pH 7.4.
The efficiency of heparin complexation by both polymers obtained was compared with the efficiency of protamine, a heparin-reversal agent commonly used in medicine (Table 1).

[2] = Dynamic light scattering: size of polymer objects and of their complexes with heparin; format: physicochemical; settings: PBS
Method: The UV spectra were recorded using a diode-array HP 8452A spectrophotometer in quartz cuvettes with 1 cm optical path. The microscopic images were obtained using Nikon TE-2000 fluorescence microscope. The size of aggregates in suspensions was determined using a Zetasizer Nano ZS instrument from Malvern Instruments Ltd.
Using dynamic light scattering technique the size of objects formed by protamine and ChGl1 in the aqueous solution at pH 7.4 was measured (FIG. 3). The solutions of polymers were prepared in the PBS buffer. The heparin-protamine and heparin-ChGl complexes were obtained by mixing the respective solutions at the volume ratio corresponding to the minimum amount of the polycation needed to completely bind heparin in the solution.
For such mixtures the size and polydispersity of particles were measured.

[3] = if not neutralized or removed from the bloodstream; cited from earlier work
[4] = fast injection, dogs; cited from earlier work
[5] = minimum amount of polycation needed to completely bind heparin

In the case of protamine, the “Mass required to bind 1 mg of heparin in PBS buffer at pH 7.4” value [1] was 1.2661 mg, the “size (diameter) of objects formed by the polymer” value ([2]; pH 7.4, without heparin) was “about 4 nm” and the “diameter of aggregates with heparin” value [2, 5] was at most 10 μm. The “polydispersity of complexes with heparin” value [2, 5] was “very polydisperse”, the “patients with adverse effects” value [3] was “about 10%” and the hemodynamic effect [4] was “severe hypotension”.
